{"source": "paper doi:10.1101/430827", "about": "(bioRxiv, 2018)", "key": {"[1]": {"molecular_target": "WT/M2345 IRSp53 heterodimer (UniProt Q9UQB8)", "assay": "co-IP"}, "[2]": {"molecular_target": "M2345/WT IRSp53 heterodimer (UniProt Q9UQB8)", "assay": "co-IP"}, "[3]": {"molecular_target": "FLAG-Eps8/pIRSp53 complex (human | , UniProt Q12929 1-822; Q9UQB8-4 1-521, phosphorylated (pIRSp53, as m4))", "sequence (Q12929 whole entry, one chain of several)": "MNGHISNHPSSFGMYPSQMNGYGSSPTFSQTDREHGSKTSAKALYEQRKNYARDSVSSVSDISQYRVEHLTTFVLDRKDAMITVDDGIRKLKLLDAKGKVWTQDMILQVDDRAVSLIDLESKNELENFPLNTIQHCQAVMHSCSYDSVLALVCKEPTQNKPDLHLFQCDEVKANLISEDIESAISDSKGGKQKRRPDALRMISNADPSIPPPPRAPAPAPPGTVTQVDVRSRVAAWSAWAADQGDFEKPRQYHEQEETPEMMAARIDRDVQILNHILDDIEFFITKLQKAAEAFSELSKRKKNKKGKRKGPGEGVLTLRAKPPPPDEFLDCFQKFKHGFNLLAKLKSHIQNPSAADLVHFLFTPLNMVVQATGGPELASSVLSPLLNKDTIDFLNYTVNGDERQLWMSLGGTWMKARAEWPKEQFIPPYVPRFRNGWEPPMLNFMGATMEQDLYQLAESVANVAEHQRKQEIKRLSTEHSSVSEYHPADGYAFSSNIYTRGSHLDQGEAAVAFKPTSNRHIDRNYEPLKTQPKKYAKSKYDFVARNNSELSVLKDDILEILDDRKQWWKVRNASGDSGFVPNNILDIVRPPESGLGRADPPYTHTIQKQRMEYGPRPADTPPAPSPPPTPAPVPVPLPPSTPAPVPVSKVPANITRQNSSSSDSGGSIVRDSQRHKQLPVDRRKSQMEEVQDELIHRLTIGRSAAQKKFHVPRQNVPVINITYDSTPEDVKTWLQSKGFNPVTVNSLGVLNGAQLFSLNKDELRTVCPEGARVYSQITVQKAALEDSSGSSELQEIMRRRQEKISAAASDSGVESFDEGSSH", "assay": "pull-down"}, "crystal structure": {"molecular_target": "the molecule itself", "assay": "crystal structure"}, "2xFLAG-Eps8": {"molecular_target": "2xFLAG-Eps8 (human, UniProt Q12929 1-822)", "sequence (Q12929 whole entry)": "as the sequence (Q12929 whole entry, one chain of several) above", "assay": "other fluorescence titration"}}}
{"molecule": "endogenous 14-3-3 (all isoforms included) (from UniProt P27348 1-245) (natural protein)", "values": [{"measurement": "percent of the amount that coimmunoprecipitates with WT/WT IRSp53", "setting": "[1]", "value": 50, "unit": "%"}, {"measurement": "percent of the amount that coimmunoprecipitates with WT/WT IRSp53", "setting": "[2]", "value": 50, "unit": "%"}]}
{"molecule": "14-3-3θ (natural protein, human) MEKTELIQKAKLAEQAERYDDMATCMKAVTEQGAELSNEERNLLSVAYKNVVGGRRSAWRVISSIEQKTDTSDKKLQLIKDYREKVESELRSICTTVLELLDKYLIANATNPESKVFYLKMKGDYFRYLAEVACGDDRKQTIDNSQGAYQEAFDISKKEMQPTHPIRLGLALNFSVFYYEILNNPELACTLAKTAFDEAIAELDTLNEDSYKDSTLIMQLLRDNLTLWTSDSAGEECDAAEGAEN", "values": [{"measurement": "binding result", "setting": "[3]", "value": "binds"}, {"measurement": "binding result", "setting": "crystal structure", "value": "binds"}]}
{"molecule": "pIRSp53FS (natural protein, UniProt Q9UQB8-4 1-521, looked up, natively phosphorylated in HEK293T cells; C230 and C519 labeled with the donor/acceptor pair fluorescein maleimide/rhodamine maleimide) MSLSRSEEMHRLTENVYKTIMEQFNPSLRNFIAMGKNYEKALAGVTYAAKGYFDALVKMGELASESQGSKELGDVLFQMAEVHRQIQNQLEEMLKSFHNELLTQLEQKVELDSRYLSAALKKYQTEQRSKGDALDKCQAELKKLRKKSQGSKNPQKYSDKELQYIDAISNKQGELENYVSDGYKTALTEERRRFCFLVEKQCAVAKNSAAYHSKGKELLAQKLPLWQQACADPSKIPERAVQLMQQVASNGATLPSALSASKSNLVISDPIPGAKPLPVPPELAPFVGRMSAQESTPIMNGVTGPDGEDYSPWADRKAAQPKSLSPPQSQSKLSDSYSNTLPVRKSVTPKNSYATTENKTLPRSSSMAAGLERNGRMRVKAIFSHAAGDNSTLLSFKEGDLITLLVPEARDGWHYGESEKTKMRGWFPFSYTRVLDSDGSDRLHMSLQQGKSSSTGNLLDKDDLAIPPPDYGAASRAFPAQTASGFKQRPYSVAVPAFSQGLDDYGARSMSSGSGTLVCTV", "values": [{"measurement": "Kd", "setting": "2xFLAG-Eps8", "value": 42, "unit": "nM"}]}
